Measurements from PMC8724738, “Exon‐independent recruitment of SRSF1 is mediated by U1 snRNP stem‐loop 3”.

Experiments:
FUS RRM = FUS RRM (UniProt P35637 285-371); assay: NMR; 30 C; NMR/ITC: 10 mM NaPO4 pH 7.0, 50 mM L-Arg, 50 mM L-Glu, 5 mM DTT (TCEP for ITC); NMR 313 K (FUS 30 C), ITC 27 C; single-molecule: 50% nuclear extract, 3.2 mM MgCl2, 50 mM K-glutamate, 20 mM HEPES pH 7.5, 1.5 mM ATP, 30 C; details: protein: recombinant; hairpin
GB1-SRSF1ΔRS = GB1-SRSF1ΔRS (UniProt Q07955 1-197, del198-248); assay: ITC; 27 C; NMR buffer with TCEP; NMR/ITC: 10 mM NaPO4 pH 7.0, 50 mM L-Arg, 50 mM L-Glu, 5 mM DTT (TCEP for ITC); NMR 313 K (FUS 30 C), ITC 27 C; single-molecule: 50% nuclear extract, 3.2 mM MgCl2, 50 mM K-glutamate, 20 mM HEPES pH 7.5, 1.5 mM ATP, 30 C; details: protein: recombinant; hairpin
Sequence of GB1-SRSF1ΔRS (Q07955 1-197, stated change not applied): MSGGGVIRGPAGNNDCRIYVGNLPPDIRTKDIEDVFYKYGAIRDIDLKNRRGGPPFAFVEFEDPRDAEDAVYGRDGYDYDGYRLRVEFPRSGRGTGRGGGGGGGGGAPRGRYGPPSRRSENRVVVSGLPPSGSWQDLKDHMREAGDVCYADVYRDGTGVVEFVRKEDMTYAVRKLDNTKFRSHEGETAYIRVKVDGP

Sequence of FUS RRM (P35637 285-371): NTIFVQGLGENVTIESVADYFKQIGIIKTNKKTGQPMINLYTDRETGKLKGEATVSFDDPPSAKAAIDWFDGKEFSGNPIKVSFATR

B1: U1 snRNA stem-loop 3 (SL3) wild type (structured_RNA)
RNA: GCGAUUUCCCCAAAUGUGGGAAACUCGC
- binding result (FUS RRM): binds
- Kd (GB1-SRSF1ΔRS): 10.9 ± 2.8 µM
